The record followed here is publication PMC10600457.

Some targets named below: FcγRIIA (UniProt P12318); FcγRIIB (UniProt P31994); FcγRI (UniProt P12314); FcγRIIIA-158V.
Common to all, as to assay: SPR

UniProt P12314, sequence (P12314 16-374): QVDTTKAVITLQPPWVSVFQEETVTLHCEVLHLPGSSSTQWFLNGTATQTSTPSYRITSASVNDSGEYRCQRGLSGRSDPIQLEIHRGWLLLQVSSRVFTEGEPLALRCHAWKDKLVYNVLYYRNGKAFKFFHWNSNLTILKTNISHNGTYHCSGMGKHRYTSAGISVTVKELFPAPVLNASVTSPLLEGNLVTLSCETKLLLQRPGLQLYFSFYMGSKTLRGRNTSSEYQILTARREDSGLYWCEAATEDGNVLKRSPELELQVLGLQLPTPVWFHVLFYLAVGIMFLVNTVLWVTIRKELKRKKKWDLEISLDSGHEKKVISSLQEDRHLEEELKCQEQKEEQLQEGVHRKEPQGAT
UniProt P31994, sequence (P31994 43-310): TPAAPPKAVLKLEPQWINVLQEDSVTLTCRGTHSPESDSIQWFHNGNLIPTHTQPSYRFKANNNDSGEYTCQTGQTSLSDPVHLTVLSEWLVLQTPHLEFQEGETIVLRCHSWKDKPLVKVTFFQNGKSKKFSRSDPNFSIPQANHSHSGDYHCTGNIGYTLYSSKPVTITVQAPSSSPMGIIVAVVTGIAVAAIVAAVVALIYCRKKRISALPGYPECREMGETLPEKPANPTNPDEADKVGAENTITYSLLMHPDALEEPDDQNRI

B1: Palivizumab (antibody, V domains shown)
VH: QVTLRESGPALVKPTQTLTLTCTFSGFSLSTSGMSVGWIRQPPGKALEWLADIWWDDKKDYNPSLKSRLTISKDTSKNQVVLKVTNMDPADTATYYCARSMITNWYFDVWGAGTTVTVSS
VL: DIQMTQSPSTLSASVGDRVTITCKCQLSVGYMHWYQQKPGKAPKLLIYDTSKLASGVPSRFSGSGSGTEFTLTISSLQPDDFATYYCFQGSGYPFTFGGGTKLEIK
For the molecule B1, the Kd with FcγRIIA was found to be 2.78 µM; with FcγRIIB, 12.5 µM; with FcγRI it was 0.00101 µM; with FcγRIIIA-158V it was 0.882 µM.

B2: Nirsevimab (antibody, V domains shown)
VH: QVQLVQSGAEVKKPGSSVMVSCQASGGLLEDYIINWVRQAPGQGPEWMGGIIPVLGTVHYGPKFQGRVTITADESTDTAYMELSSLRSEDTAMYYCATETALVVSETYLPHYFDNWGQGTLVTVSS
VL: DIQMTQSPSSLSAAVGDRVTITCQASQDIVNYLNWYQQKPGKAPKLLIYVASNLETGVPSRFSGSGSGTDFSLTISSLQPEDVATYYCQQYDNLPLTFGGGTKVEIK
As to B2, the Kd was 9.3 µM with FcγRIIA, 0.0103 µM with FcγRI and 2.11 µM with FcγRIIIA-158V.

B3: MEDI8897*-TM (antibody, V domains shown)
VH: QVQLVQSGAEVKKPGSSVMVSCQASGGLLEDYIINWVRQAPGQGPEWMGGIIPVLGTVHYGPKFQGRVTITADESTDTAYMELSSLRSEDTAMYYCATETALVVSETYLPHYFDNWGQGTLVTVSS
VL: DIQMTQSPSSLSAAVGDRVTITCQASQDIVNYLNWYQQKPGKAPKLLIYVASNLETGVPSRFSGSGSGTDFSLTISSLQPEDVATYYCQQYDNLPLTFGGGTKVEIK
As to B3, the values for the Kd in the experiment with FcγRIIA, with FcγRI and in the experiment with FcγRIIIA-158V were 34.4 µM, 0.24 µM and 5.15 µM, respectively.

B4: MEDI8897* (antibody, V domains shown)
VH: QVQLVQSGAEVKKPGSSVMVSCQASGGLLEDYIINWVRQAPGQGPEWMGGIIPVLGTVHYGPKFQGRVTITADESTDTAYMELSSLRSEDTAMYYCATETALVVSETYLPHYFDNWGQGTLVTVSS
VL: DIQMTQSPSSLSAAVGDRVTITCQASQDIVNYLNWYQQKPGKAPKLLIYVASNLETGVPSRFSGSGSGTDFSLTISSLQPEDVATYYCQQYDNLPLTFGGGTKVEIK
With B4, the Kd in the experiment with FcγRIIA is 3.72 µM; with FcγRIIB, 13.5 µM; with FcγRI, 0.00124 µM; with FcγRIIIA-158V, 1.15 µM.
